B1: SIGLEC-8-46 (antibody, human IgG1, kappa, V domains shown)
VH: EVQLLESGGGLVQPGGSLRLSCAASGLTFSRYAMSWVRQAPGKGLEWVSTVSGSGVSTYYADSVKGRFTISRDNSKNTLYLQMNSLRAEDTAVYYCARARGGSSRYYYGMDVWGQGTLVTVSS
VL: DIQMTQSPSSLSASVGDRVTITCRASQTIDKYLNWYQQKPGKAPKLLIYGASRLQNGVPSRFSGSGSGTDFTLTISSLQPEDFATYYCQQSYTTPTFGGGTKVEIKR
notes: tested as expressed and purified mAb
B2: SIGLEC-8-33 (antibody, human IgG1, kappa, V domains shown)
VH: EVQLLESGGGLVQPGGSLRLSCAASGFAFSDYAMSWVRQAPGKGLEWVSAITGSGDYTYYADSVKGRFTISRDNSKNTLYLQMNSLRAEDTAVYYCARDTGGMDVWGQGTLVTVSS
VL: DIQMTQSTSSLSASVGDRVTITCRASQSIHSYLNWYQQKPGKAPILIYAASSLERGVPSRFSGSGSGTDFTLTISSLQPEDFATYYCQQSYITPYSFGGGTKVEIKR
notes: as for B1
B3: SIGLEC-8-50 (antibody, human IgG1, kappa, V domains shown)
VH: EVQLLESGGGLVQPGGSLRLSCAASGFTLSNYAMTWVRQAPGKGLEWVSTVSGSGASTYYADSVKGRFTISRDNSKNTLYLQMNSLRAEDTAVYYCAREDSGKYLSLDYWGQGTLVTVSS
VL: DIQMTQSPSSLSASVGDRVTITCRASQSIGSYLNWYQQKPGKAPKLLIYSASSLQTGVPSRFSGSGSGTDFTLTISSLQPEDFATYYCQQTYNTPITFGGGTKVEIKR
notes: as for B1
B4: SIGLEC-8-25 (antibody, human IgG1, kappa, V domains shown)
VH: EVQLLESGGGLVQPGGSLRLSCAASGFTFSKYAMDWVRQAPGKGLEWVSDISGSGGTTYYADSVKGRFTISRDNSKNTLYLQMNSLRAEDTAVYYCVRAGLVGYDFDIWGQGTLVTVSS
VL: B3 VL with Q27E, G30S, S50G, S53I, T56G, T91S, N93S, T94F
notes: as for B1
B5: SIGLEC-8-16 (antibody, human IgG1, kappa, V domains shown)
VH: EVQLLESGGGLVQPGGSLRLSCAASGFTFSDYGMSWVRQAPGKGLEWVLAISGSGATTYYADSVKGRFTISRDNSKNTLYLQMDSLRAEDTAVYYCAREGGSTYYSLDYWGQGTLVTVSS
VL: B3 VL with A25T, S50A, A51T, S53N, Q55H, T56S, T91S, N93K, I96Y
notes: as for B1
B6: SIGLEC-8-9 (antibody, human IgG1, kappa, V domains shown)
VH: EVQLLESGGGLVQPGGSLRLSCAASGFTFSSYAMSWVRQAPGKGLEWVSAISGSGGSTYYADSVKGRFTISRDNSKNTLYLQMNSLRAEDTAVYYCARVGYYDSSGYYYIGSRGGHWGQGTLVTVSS
VL: B3 VL with A25T, S28T, G30S, S31T, S50D, S53D, T56S, T91N, N93I, I96N
notes: as for B1
B7: SIGLEC-8-39 (antibody, human IgG1, kappa, V domains shown)
VH: B5 VH with D31R, L49S, I51T, A56G, D84N, E99V, T103G, Y104W, S106P, L107N
VL: B3 VL with I29V, G30S, S31R, Y32F, S50G, S53T, T91S, N93T, I96H
notes: as for B1
B8: SIGLEC-8-6 (antibody, human IgG1, kappa, V domains shown)
VH: B3 VH with T28S, L29F, N31S, A33G, T35S, V51I, A56G, S57G, D100E, Y109H
VL: B3 VL with S28T, G30R, S50A, Q55H, T91S, N93T
notes: as for B1
B9: SIGLEC-8-2 (antibody, human IgG1, kappa, V domains shown)
VH: EVQLLESGGGLVQPGGSLRLSCAASGFTFSKHAMSWVRQAPGKGLEWVSGISGSGARTYYADSVKGRFTISRDNSKNTLYLQMNSLRAEDTAVYYCARQSRGGSLGMDVWGQGTLVTVSS
VL: B3 VL with S28R, G30S, S50G, S53I, S76N, Q90E, T91S, N93S, I96F
notes: as for B1
B10: SIGLEC-8-55 (antibody, human IgG1, kappa, V domains shown)
VH: EVQLLESGGGLVQPGGSLRLSCAASGFTFDDYAMSWVRQAPGKGLEWVSYISGSGGSTYYADSVKGRFTISRDNSKNTLYLQMNSLRAEDTAVYYCAKYRRYDSGLGGFDYWGQGTLVTVSS
VL: B3 VL with Q27R, G30D, S31T, S50D, S53T, T56G, T91S, N93V, I96P
notes: tested as expressed and purified mAb; also called SIGLEC-55
B11: SIGLEC-8-28 (antibody, human IgG1, kappa, V domains shown)
VH: EVQLLESGGGLVQPGGSLRLSCAASGSPFSNYAMSWVRQAPGKGLEWVSSISGGGASTYYADSVKGRFTISRDNSKNTLYLQMNSLRAEDTAVYYCAREKDNSWFGMDVWGQGTLVTVSS
VL: B3 VL with G30D, S31R, S50G, S53T, N93S
notes: as for B1
B12: SIGLEC-8-49 (antibody, human IgG1, kappa, V domains shown)
VH: EVQLLESGGGLVQPGGSLRLSCAASGFTFSTYAMHWVRQAPGKGLEWVSTISASGGSTYYADSVKGRFTISRDNSKNTLYLQMNSLRAEDTAVYYCAKSGGADYYYYGMDVWGQGTLVTVSS
VL: B3 VL with S31Y, S50G, A51T, T56S, T91S, N93S, I96L, T97N
notes: as for B1
B13: SIGLEC-8-15 (antibody, human IgG1, kappa, V domains shown)
VH: EVQLLESGGGLVQPGGSLRLSCAASGFTFSTYTMNWVRQAPGKGLEWVSVISGSGDDTYYADSVKGRFTISRDNSKNTLYLQMNSLRAEDTAVYYCTRAGEQHHYYGMDVWGQGTLVTVSS
VL: B3 VL with S28T, G30S, S31T, Y32S, S50G, S53T, T56R, Q89R, T91S, N93S
notes: as for B1
B14: SIGLEC-8-3 (antibody, human IgG1, kappa, V domains shown)
VH: EVQLLESGGGLVQPGGSLRLSCAASGFTFSTYDMTWVRQAPGKGLEWVSSIGGSGRSTYYADSVKGRFTISRDNSKNTLYLQMNSLRAEDTAVYYCARGSASAWFAFDYWGQGTLVTVSS
VL: B3 VL with G30A, S31R, S50G, S53D, T56S, T91S, N93R, P95S, I96Y
notes: as for B1
B15: SIGLEC-8-14 (antibody, human IgG1, kappa, V domains shown)
VH: EVQLLESGGGLVQPGGSLRLSCAASGFSFSNHAMTWVRQAPGKGLEWVSGISGSSGSTYYADSVKGRFTISRDNSKNTLYLQMNSLRAEDTAVYYCAREGRVAAYFDSWGQGTLVTVSS
VL: B3 VL with S28G, G30S, S31G, S50G, S53R, T56N, T91S, N93T
notes: as for B1
B16: SIGLEC-8-51 (antibody, human IgG1, kappa, V domains shown)
VH: EVQLLESGGGLVQPGGSLRLSCAASGFTFPRYGMSWVRQAPGKGLEWVTATSGSGGTTYYADSVKGRFTISRDNSKNTLYLQMNSLRAEDTAVYYCARDESSGWYPKDYWGQGTLVTVSS
VL: DIQMTQSPSSLSASVGDRVTITCRASQSVSRFLNWYQQKPGKAPKLLIYGASNLEGGVPSRFSGSGSGTDFTLTISSLQPEDFATYYCQQSYTTPHTFGGGTKVEIKR
notes: as for B1
B17: SIGLEC-8-13 (antibody, human IgG1, kappa, V domains shown)
VH: EVQLLESGGGLVQPGGSLRLSCAASGFTFSSYDMNWVRQAPGKGLEWVSAISGSGVGTYYADSVKGRFTISRDNSKNTLYLQMNSLRAEDTAVYYCSKDVRWSPGGMDVWGQGTLVTVSS
VL: B16 VL with R31I, F32Y, G50A, A51T, E55H, G56S, Y92H, T93S, H96Y
notes: as for B1
B18: SIGLEC-8-38 (antibody, human IgG1, kappa, V domains shown)
VH: EVQLLESGGGLVQPGGSLRLSCAASGFTFSPYAMSWVRQAPGKGLEWVSGIGGSGGSTYYADSVKGRFTISRDNSKNTLYLQMNSLRAEDTAVYYCARDYGGYYFDYWGQGTLVTVSS
VL: DIQMTQSPSSLSASVGDRVTITCRASQYISNYLNWYQQKPGKAPKLLIYATSTLESGVPSRFSGSGSGTDFTLTISSLQPEDFATYYCQQGYSVPWTFGGGTKVEIKR
notes: as for B1
B19: SIGLEC-8-23 (antibody, human IgG1, kappa, V domains shown)
VH: EVQLLESGGGLVQPGGSLRLSCAASGLTFSSYAMSWVRQAPGKGLEWVSAISGSGVGTYYADSVKGRFTISRDNSKNTLYLQMNSLRAEDTAVYYCAKHTSSSWYPLDYWGQGTLVTVSS
VL: B16 VL with A25S, V29I, S30T, R31T, F32Y, G50A, E55Y, G56S, Y92H, H96L
notes: as for B1
B20: SIGLEC-8-47 (antibody, human IgG1, kappa, V domains shown)
VH: B9 VH with K31T, G50T, A56D, R57I
VL: B16 VL with S28T, V29I, F32Y, G50A, E55Y, G56S, Y92F, T93A, H96Y
notes: as for B1
B21: SIGLEC-8-29 (antibody, human IgG1, kappa, V domains shown)
VH: EVQLLESGGGLVQPGGSLRLSCAASGFTFSRHAMTWVRQAPGKGLEWVSAISSSGDNTYYVDSVKGRYTISRDNSKNTLYLQMNSLRAEDTAVYYCARIHRNGHAFDIWGQGTLVTVSS
VL: DIQMTQSPSSLSASVGDRVTITCRASQSIHTYLNWYQQKPGKAPKLLIYGASTLRSGVPSRFSGSGSGTDFTLTISSLQPEDFATYYCQQSYSTPLLTFGGGTKVEIKR
notes: as for B1

Substitutions are numbered along the chain they refer to.

We go through 21 molecules from US20260001953A1 (TWIST BIOSCIENCE, published 2026).

One may read the Kd as a measure of binding affinity in units of concentration. Low readings indicate higher affinity, high ones lower affinity. The EC50 is the concentration needed to bring the measured effect to its halfway point. Read a low EC50 as higher potency in that assay.

T1 sequence (Q9NYZ4 17-499 limits assumed): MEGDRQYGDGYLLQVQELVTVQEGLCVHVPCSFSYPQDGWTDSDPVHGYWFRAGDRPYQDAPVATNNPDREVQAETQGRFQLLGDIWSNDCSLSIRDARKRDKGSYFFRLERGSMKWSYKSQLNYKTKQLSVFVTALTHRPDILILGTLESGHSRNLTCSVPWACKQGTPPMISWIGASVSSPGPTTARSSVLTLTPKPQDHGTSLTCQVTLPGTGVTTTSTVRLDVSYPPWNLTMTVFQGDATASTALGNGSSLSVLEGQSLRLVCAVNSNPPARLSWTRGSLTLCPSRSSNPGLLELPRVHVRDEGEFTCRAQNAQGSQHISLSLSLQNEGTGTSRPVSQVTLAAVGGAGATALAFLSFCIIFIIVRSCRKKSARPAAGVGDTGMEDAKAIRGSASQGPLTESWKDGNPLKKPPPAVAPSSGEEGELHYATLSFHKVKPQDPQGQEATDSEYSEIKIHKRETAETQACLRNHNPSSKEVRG

The target in the first test is Sialic acid-binding immunoglobulin-like lectin 8 (SIGLEC-8), antigen of the Carterra SPR studies (UniProt Q9NYZ4 17-363, limits assumed). Put plainly: Carterra SPR. Summed up: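 Binding kinetics of antibodies to SIGLEC-8 were measured by surface plasmon resonance on a Carterra instrument. The antibodies came from synthetic antibody libraries panned over four rounds with a bead-based strategy and screened by clonal ELISA. Selected clones were expressed and purified before testing. The read-outs are rate constants, dissociation constants or results from these kinetic runs.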
Chain of Sialic acid-binding immunoglobulin-like lectin 8 (SIGLEC-8), antigen of the Carterra SPR studies (Q9NYZ4 17-363 limits assumed): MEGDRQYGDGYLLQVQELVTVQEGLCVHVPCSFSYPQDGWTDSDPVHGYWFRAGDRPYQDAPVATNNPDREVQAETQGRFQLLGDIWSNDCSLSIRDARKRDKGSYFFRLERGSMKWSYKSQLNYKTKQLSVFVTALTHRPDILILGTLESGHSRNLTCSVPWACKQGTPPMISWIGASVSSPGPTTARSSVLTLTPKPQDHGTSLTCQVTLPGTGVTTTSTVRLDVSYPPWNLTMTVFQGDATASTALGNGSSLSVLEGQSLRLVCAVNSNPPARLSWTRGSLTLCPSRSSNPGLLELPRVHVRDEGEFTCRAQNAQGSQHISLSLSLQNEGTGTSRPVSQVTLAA
Take B1: the Kd stood at 152000 nM.

In turn, B2 came in with a Kd of 2.5 nM.

As for B3, the affinity, expressed as Kd, was 1.21 nM.

The molecule B4 showed a Kd of 50.6 nM.

B5 displayed a Kd of 2.02 nM.

Turning to B6, the Kd came out at 8080 nM.

B7 returned a Kd of 159 nM.

Regarding B8, the Kd came out at 4.68 nM.

The molecule B9 had a Kd of 160000 nM.

B10 returned a Kd of 1.61 nM.

B11 gave a dissociation constant Kd of 3.49 nM.

On to B12, for which the Kd came to 88.8 nM.

In turn, B13 came in with a Kd of 2.57 nM.

B14 came in with a Kd of 242 nM.

For B15, the Kd is 65.4 nM.

B16: the Kd is 10 nM.

For B17, the binding result is “no binding”.

B18 came in with a Kd of 46200 nM.

For B19, binding was characterised by a dissociation constant (Kd) of 10.1 nM.

B20 yielded a Kd of 32.7 nM.

In the case of B21, binding was put at a Kd of 326 nM.

The next test concerns the target T1, SIGLEC-8 transiently expressed on cells (UniProt Q9NYZ4 17-499, limits assumed).
T1 construct: whole, on cells; Two cassettes are described (P2A mVenus and direct mVenus fusion); also called the transient line; pTT5-SIGLEC-8 P2A mVenus
Kind of test: cell binding titration, transient SIGLEC-8 line.
Regarding B1, the midpoint of the response, the EC50, lay at 32.8 nM.

In turn, B2 gave an EC50 of 133 nM.

For the molecule B3, the EC50 is 1.15 nM.

The molecule B4 yielded an EC50 of 7.63 nM.

Take B5: the EC50 was found to be 2.87 nM.

For the molecule B6, the midpoint of the response, the EC50, lay at 1590 nM.

With B7, a half-maximal effect (EC50) was put at 4.47 nM.

Regarding B8, the midpoint of the response, the EC50, lay at 2.43 nM.

For the molecule B9, a half-maximal effect (EC50) was put at 8.28 nM.

In turn, B10 showed an EC50 of 3.01 nM.

The molecule B11 gave an EC50 of 1.02 nM.

In the case of B12, the EC50 turned out to be 1.4 nM.

Molecule B14 returned an EC50 of 6.46 nM.

B15 had an EC50 of 20.8 nM.

In the case of B17, the EC50 is 50.7 nM.

Molecule B18 came in with an EC50 of 10.6 nM.

The molecule B19 showed an EC50 of 0.855 nM.

In turn, B20 gave an EC50 of 1.88 nM.

With B21, the EC50 was found to be 355 nM.
